Test results from the supplement of paper PMC9170038.

Test system: MS2 coat protein
Assay: apparent KD of MS2 coat protein; designed switch direction (-1 OFF switch, 1 ON switch): -1; higher = weaker reporter binding
Method in brief: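 An oligonucleotide input, 200 uM small-molecule ligand, or no input was present during titration of SNAP-549-labelled MS2 coat protein, which was doubled from 0.7 or 1.5 nM to 3 µM. Designed RNA switches had been transcribed on Illumina chips by stalled E. coli RNA polymerase. Apparent KD per design is the median over clusters of curves fitted to normalised cluster fluorescence.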

[1] = input ligand: microRNA oligo, concentration not stated
[2] = Eterna round: R95, input ligand: microRNA oligo, concentration not stated
[3] = Eterna round: R95, input ligand: FMN 200 uM
[4] = Eterna round: R95, input ligand: none

| Sequence | apparent KD of MS2 coat protein (input ligand: FMN 200 uM) [nM] | apparent KD of MS2 coat protein [1] [nM] | apparent KD of MS2 coat protein (input ligand: none) [nM] | apparent KD of MS2 coat protein [2] [nM] | apparent KD of MS2 coat protein [3] [nM] | apparent KD of MS2 coat protein [4] [nM] |
| --- | --- | --- | --- | --- | --- | --- |
| ACAUGCCGCGCAGGAUAUGGGACACAUGAGGAUCACCCAUGUGGUUUCAUGUCUAACCAAGCGUCCCAGAAGGGCGUGAACAUG [Ex NG2 #29] (Eterna round: R96, puzzle: Exclusion NG 2) | 30.9 | 16.1 | 25.2 | – | – | – |
| GGUACCUCUGUUAGGAUAUUGUUAGUGUGAAGCGACGAGAAGGAACAUGAGGAUCACCCAUGUUGCAUCGUAAA [Eternabot (L2) Solution 54] (Eterna round: R97, puzzle: Brourd's mod of Exclusion 4) | 152 | – | 27.1 | – | – | – |
| UUUUUGUCAGGAUAUGACUAGAUGCACGUUAGUGUAUUUACUUAGAAGGGACAUGAGGAUCACCCAUGUAUUCC [Bring Us a Shrubbery-13] (puzzle: Exclusion 4) | – | – | – | 26.2 | – | – |
| GAAAAGGUAGGAUAUACGAAAUAAAAGGGUAGAAAAAAAACACAUGAGGAUCACCCAUGUAGAAGGACCAAAAG [salish99_ex2_r3_084] (puzzle: Exclusion 2) | – | – | – | 15.5 | 52.9 | 34.7 |
| UACAUGAGGAUCACCCAUGUUUUGUCGUGUAUGGUAUUUAUCUAGGAUAUCAUUGUAUUUAGUUAUGAGAAGGAGAAUAUUAAU [JMF's solution 83] (Eterna round: R96, puzzle: Exclusion NG 3) | 30.2 | 22.9 | 33 | – | – | – |
| ACAAGCUUUUUGUUCGUCUUAUACACUCCUAAUAAGACAACAUGAGGAUCACCCAUGUAACAAAUAAGAACUCAUGU [Sesor Array 5 - Jieux - Sensor v3, turn-off variant 2] (puzzle: Sensor v3, turn-off variant 2) | – | – | – | 293 | 75 | 90.2 |
| UUAUUAUAUGUAGGAUAUGCAUAUUGUUGUUAUGCAGAAGGACAUGAGGAUCACCCAUGUAUAUUAUUGUUGUAUAUUAUAUAU [Title] (Eterna round: R96, puzzle: Exclusion NG 1) | 37.4 | 17.5 | 24.1 | – | – | – |
| CCAAGCUACUUCAUUAUCCACAUGAGGAUCACCCAUGUCUAGGCAAUUAUGACCUGCCCGUCAGGAGCUCGUCUUAU [Sensor-V1 #40] (Eterna round: R97, puzzle: Sensor, turn-off variant 1) | 35.1 | – | 28.7 | – | – | – |
| AUAUAGUGAGGAUAUACAUGAGGAUCACCCAUGUGGUAGUAGAUACAGUAGAGAUAGAGUAGAAGGCACGAUGA [EX3 #26] (Eterna round: R97, puzzle: Exclusion 3) | 197 | – | 68 | – | – | – |
| GAAAAGGUAGGAUAUACGAUAAGAAAGGGUAGAUAAUAAACACAUGAGGAUCACCCAUGUAGAAGGACCAAAAG [salish99_ex2_r3_102] (puzzle: Exclusion 2) | – | – | – | 35.4 | 139 | 39.7 |
| UGCCAAGCAGGAUAUGCCCGGAAUAACAUGAGGAUCACCCAUGUGACCGAUUGAUGUUCUGCAGAAGGGCAUGGAA [Mat - Exclusion 5 - Eli Mod - D2] (Eterna round: R97, puzzle: Exclusion 5) | 17.2 | – | 35.7 | – | – | – |
| GCGCCAUCGUGAGAUGGCGUUUCGACAUGAGGAUCACCCAUGUAGGAUAUCGAUUGCUUUGCAGUCGAGAAGGGCGUGAUAAGU [JL ENG3 3.72] (Eterna round: R96, puzzle: Exclusion NG 3) | 104 | 74.4 | 98.2 | – | – | – |
| GCCGAAAAAGUGAGGAUAUACCUAUGGAUACAUAGGUAGAAGGCACAUGAGGAUCACCCAUGUGUCCUAACGGC [Eli bmx4 4.29] (Eterna round: R97, puzzle: Brourd's mod of Exclusion 4) | 18 | – | 15.2 | – | – | – |
| GGUCGAGAAGUUAGGAUAUCGAUAAAACAGAAAUUUGAGAAGGGACUUGAGGAUCACCCAAGUUAUUGGUUCUC [Anaranle] (Eterna round: R97, puzzle: Brourd's mod of Exclusion 4) | 17.8 | – | 19.6 | – | – | – |
| CAGUACUACAAGCUAAGGGACAUGAGGAUCACCCAUGUUCGUCUUAUUGAUCUAGGUACGCUGACGUACCUAGAUCU [JL-sv1-2.18 Brourd mod] (puzzle: Sensor v3, turn-off variant 1) | – | – | – | 20.8 | 13.6 | 13.8 |
| UUAUACAAGCAAAGAUCCCACAUGAGGAUCACCCAUGUGCUCGUCUUAUAAGGAACUGUGACGAAAGUCACGGUUCC [Mat - Sensor, turn-off var - Eli Mod - D100] (Eterna round: R97, puzzle: Sensor, turn-off variant 1) | 36.2 | – | 37.2 | – | – | – |
| CGCUGGUGAGGAUAUGGGUGUUUUUACAUGAGGAUCACCCAUGUGGAGUAGCAUGUGGGUCCAGAAGGCGCGAGUG [-24.2, -22.5 kcal, 21% A] (Eterna round: R97, puzzle: Exclusion 5) | 398 | – | 309 | – | – | – |

| Sequence | apparent KD of MS2 coat protein (input ligand: FMN 200 uM) [nM] | apparent KD of MS2 coat protein [1] [nM] | apparent KD of MS2 coat protein (input ligand: none) [nM] | apparent KD of MS2 coat protein [2] [nM] | apparent KD of MS2 coat protein [3] [nM] | apparent KD of MS2 coat protein [4] [nM] |
| --- | --- | --- | --- | --- | --- | --- |
| UUUUGGCAUGUAGGAUAUGGGUCCGAUUAGGAUUUAGAAGGACAUGAGGAUCACCCAUGUGCAUUUAAUUGGUCAUUACCUUUU [EXclNG1-LROPPY11] (Eterna round: R96, puzzle: Exclusion NG 1) | – | 65.5 | – | – | – | – |
| ACAUGACUGCUAGGAUAUAGAUGACAUGAGGAUCACCCAUGUUAUCCCAUGUUGACGGAAACCGACUAGAAGGAGCAGCAUAUG [Ex NG2 #9] (Eterna round: R96, puzzle: Exclusion NG 2) | 118 | 43.5 | 45.3 | – | – | – |
| AUGUUGUCAGGAUAUCGUUAAUUUAGUUGUUUGUAUUAGUUCGAGAAGGGACAUGAGGAUCACCCAUGUUUGAA [Ex4 #35] (Eterna round: R97, puzzle: Exclusion 4) | 41.2 | – | 34.8 | – | – | – |
| UUUUAGUCAGGAUAUACAUGAGGAUCACCCAUGUAAAAUUUUAAUUUAAUUUGAAUGUGUAGAAGGGACAUUUU [Ex3 #41] (Eterna round: R97, puzzle: Exclusion 3) | 23.6 | – | 26.4 | – | – | – |
| AGGACGGCAGGAUAUACAUGAGGAUCACCCAUGUCUGGUGUCGAGCUAAUUGUGCAUAGUAGAAGGGUCGCUCC [Eternabot (L1) Solution 39] (Eterna round: R97, puzzle: Exclusion 3) | 204 | – | 62.1 | – | – | – |
| ACAUGAGGAUCACCCAUGUUUUUUGGGUACUUUUGUUUCUGCAAGGAUAUGCAUUAUUUAUAUACGCAGAAGGUGCAUUACUUC [JR_ExcNG3_Sub061] (Eterna round: R96, puzzle: Exclusion NG 3) | – | 501 | – | – | – | – |
| GUAGAGUAAGGAUAUAGUGAAUAGGAUAGAAUGGUUAGAAACUAGAAGGUACAUGAGGAUCACCCAUGUAAUGU [Excluse me!!!! 21 - Jieux - Exclusion 4] (puzzle: Exclusion 4) | – | – | – | 20.4 | – | – |
| ACCCAACAUGAGGAUCACCCAUGUCAGGAUAUCCAUCACUAUCACGAAAGGAUAGGAUGGAGAAGGGACAGAGG [ChP 04-04-2015 #3] (puzzle: Exclusion 1) | – | – | – | 99.8 | 325 | 158 |
| UAAAAGUGAGGAUAUCCAAUAUAUGACAUGAGGAUCACCCAUGUUUCCACUCGUACCUCCGGAGAAGGCACAAAAU [Ex5 #60] (Eterna round: R97, puzzle: Exclusion 5) | 25.2 | – | 28.6 | – | – | – |
| UGAGAGUGAGGAUAUACGUCGCUGGUCCAGAUGGACGCAUGACAUGAGGAUCACCCAUGUAGAAGGCAUUUCCC [Enxela Mod 8 - Jieux - Exclusion 2] (Eterna round: R97, puzzle: Exclusion 2) | 61.9 | – | 28.4 | – | – | – |
| AUCAUGUAAGGAUAUCGUGCAAGUUUCAAAAGAGGCUUGUGCGAGAAGGUACAUGAGGAUCACCCAUGUAGGUU [Omei Ex4 B10] (Eterna round: R97, puzzle: Exclusion 4) | 57.8 | – | 584 | – | – | – |
| GGUGCGUAUGUGAGGAUAUGCUGGUCCUUGGCUCGGCAGAAGGCACAUGAGGAUCACCCAUGUGGUGUCGUUCC [salish99_Bmod_ex4_055] (puzzle: Brourd's mod of Exclusion 4) | – | – | – | 42.5 | – | – |
| GAUCUACAUGAGGAUCACCCAUGUAAGGAUAUUGAGUACUCGAAUGGAGAGCAAGGAUCAAGAAGGUGCAAUAU [Eternabot (L1) Solution 79] (Eterna round: R97, puzzle: Exclusion 1) | 18.8 | – | 23.1 | – | – | – |
| GUGUAGAUAGGAUAUGCUGGAAUCUAGCGAAGCUAGGUUCUACAUGAGGAUCACCCAUGUAGAAGGGUCUACAC [Dot plot directed A v12] (puzzle: Exclusion 2) | – | – | – | 28.5 | – | – |
| ACGAUUGUAGGAUAUACUUGGAGAGUGUUCACAUAUUAACGACAUGAGGAUCACCCAUGUAGAAGGGCAAUCGG [Eternabot (L1) Solution 22] (Eterna round: R97, puzzle: Exclusion 2) | 174 | – | 421 | – | – | – |
| CUAUUACGAGGAUAUGAUUUAAAUAACAUGAGGAUCACCCAUGUUUUUACGUUAUUUUAUUUAGAAGGCGUAUUGU [JR_E5_Sub028] (puzzle: Exclusion 5) | – | – | – | 53.7 | 34.1 | 61.5 |
| AAAAUAAGUGUGAGGAUAUGCUGGUCCUUGGAUCAGCAGAAGGCACAUGAGGAUCACCCAUGUAAUAUAUUUAU [Mat - Exclusion 4 - JL Mod - D62] (puzzle: Brourd's mod of Exclusion 4) | – | – | – | 77.3 | – | – |
